Data as given in patent publication US20150299313A1 (Chugai, published 2015).

Assays:
[1] = molecular target: T1, soluble human IL-6 receptor (human, UniProt P08887 20-357); assay: SPR (Biacore T100), antibody captured on anti-human IgG F(ab')2, human IL-6 receptor as analyte, 37 C, pH 7.4
T1 construct: also called hsIL-6R; hIL6R
T1 sequence: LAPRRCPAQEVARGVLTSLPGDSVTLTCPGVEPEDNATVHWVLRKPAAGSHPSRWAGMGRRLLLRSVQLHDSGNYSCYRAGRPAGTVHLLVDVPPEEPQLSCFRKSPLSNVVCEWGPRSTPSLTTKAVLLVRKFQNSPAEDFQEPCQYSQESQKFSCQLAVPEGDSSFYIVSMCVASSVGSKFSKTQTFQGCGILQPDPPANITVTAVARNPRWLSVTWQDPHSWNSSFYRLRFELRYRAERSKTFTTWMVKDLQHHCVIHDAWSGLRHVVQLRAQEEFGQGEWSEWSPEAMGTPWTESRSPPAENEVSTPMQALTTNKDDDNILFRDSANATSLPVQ
Procedure: (§1) GL1-IgG1-SA (−) and GL5-IgG1-SA (−) were treated with sialidase and then used as measurement samples. An appropriate amount of Anti-Human IgG (γ-chain specific), F(ab′)2 fragment antibody produced in goat (Sigma) was immobilized onto Sensor chip CM5 (GE Healthcare) in accordance with the amine coupling method and then a target antibody was allowed to capture. Subsequently, a human IL-6 receptor dilution solution and a running buffer (a blank) were injected at a flow rate of 20 μL/min for 3 minutes to allow the human IL-6 receptor to interact with the antibody captured on the sensor chip. Either one of two types of running buffers pH 7.4 and pH 6.0 containing 10 mmol/L ACES, 150 mmol/L NaCl, and 0.05% (w/v) Tween20 was used and each buffer was employed for dilution of IL-6R. Thereafter, a running buffer was fed at a flow rate 20 μL/min for 5 minutes. After dissociation of the IL-6 receptor was observed, 10 mmol/L Glycine-HCl (pH 1.5) was injected at a flow rate of 30 μL/min for 5 seconds. This procedure was repeated five times to regenerate the sensor chip. All samples were measured at 37° C. From the sensorgram obtained by measurement, an association constant, ka (1/Ms) and a dissociation constant kd (1/s) as kinetics parameters were computationally obtained. From the values, KD (M) of each antibody to a human IL-6 receptor was calculated. Individual parameters were calculated by use of Biacore T100 Evaluation Software (GE Healthcare).

[2] = molecular target: T1, soluble human IL-6 receptor; assay: SPR (Biacore T100), antibody captured on anti-human IgG F(ab')2, human IL-6 receptor as analyte, 37 C, pH 6.0
Procedure: as §1

[3] = molecular target: T1, soluble human IL-6 receptor; assay: SPR (Biacore T100), antibody captured on protein A, human IL-6 receptor as analyte, 37 C, pH 7.4
Procedure: (§2) Kinetic analysis on the antigen-antibody reaction between each of GL1-IgG1-SA (−), GL1-M111-SA (−), GL2-M111-SA (−), GL3-M111-SA (−), GL4-M111-SA (−), GL5-M111-SA (−), GL6-M111-SA (−), GL7-M111-SA (−), GL8-M111-SA (−), GL9-M111-SA (−), GL10-M111-SA (−) and a human IL-6 receptor was performed by use of Biacore T100 (GE Healthcare). An appropriate amount of protein A (Invitrogen) was immobilized onto Sensor chip CM5 (GE Healthcare) by the amine coupling method and then a target antibody was allowed to capture. Subsequently, a human IL-6 receptor dilution solution and a running buffer (a blank) were injected at a flow rate of 20 μL/min for 3 minutes to allow the human IL-6 receptor to interact with the antibody captured on the sensor chip. Either one of two types of running buffers pH 7.4 and pH 6.0 containing 10 mmol/L ACES, 150 mmol/L NaCl, and 0.05% (w/v) Tween20 was used and each buffer was employed for dilution of IL-6R. Thereafter, the running buffer was fed at a flow rate of 20 μL/min for 5 minutes. After observation of dissociation of the IL-6 receptor, 10 mmol/L Glycine-HCl (pH 1.5) was injected at a flow rate of 30 μL/min for 30 seconds to regenerate the sensor chip. All samples were measured at 37° C. From the sensorgram obtained by measurement, an association constant, ka (1/Ms) and a dissociation constant, kd (1/s) as kinetics parameters were computationally obtained. Based on the obtained values, KD (M) of each antibody to a human IL-6 receptor was calculated. Individual parameters were calculated by use of Biacore T100 Evaluation Software (GE Healthcare).

[4] = molecular target: T1, soluble human IL-6 receptor; assay: SPR (Biacore T100), antibody captured on protein A, human IL-6 receptor as analyte, 37 C, pH 6.0
Procedure: as §2

B1: H54/L28-IgG1 (antibody, V domains shown)
VH: QVQLQESGPGLVKPSETLSLTCAVSGYSISDDQAWSWVRQPPGEGLEWIGYISYSGITNYNPSLKGRVTISRDTSKNQFSLKLSSVTAADTAAYYCARSLARTTAMDYWGEGTLVTVSS
VL: DIQMTQSPSSLSASVGDSVTITCQASQDISSYLNWYQQKPGKAPELLIYYGSELHSGVPSRFSGSGSGTDFTFTISSLEAEDAATYYCQQGNSLPYTFGQGTKVEIER
notes: Humanized anti-IL-6 receptor antibody without pH or Ca dependency; not treated with sialidase; also called H54/L28-IgG1-SA (+); H54L28-IgG1-SA (+)
B1 showed a Kd [1] of 3.9 nM and a Kd [2] of 3.4 nM.

B2: GL1-IgG1-SA (+) (antibody)
heavy: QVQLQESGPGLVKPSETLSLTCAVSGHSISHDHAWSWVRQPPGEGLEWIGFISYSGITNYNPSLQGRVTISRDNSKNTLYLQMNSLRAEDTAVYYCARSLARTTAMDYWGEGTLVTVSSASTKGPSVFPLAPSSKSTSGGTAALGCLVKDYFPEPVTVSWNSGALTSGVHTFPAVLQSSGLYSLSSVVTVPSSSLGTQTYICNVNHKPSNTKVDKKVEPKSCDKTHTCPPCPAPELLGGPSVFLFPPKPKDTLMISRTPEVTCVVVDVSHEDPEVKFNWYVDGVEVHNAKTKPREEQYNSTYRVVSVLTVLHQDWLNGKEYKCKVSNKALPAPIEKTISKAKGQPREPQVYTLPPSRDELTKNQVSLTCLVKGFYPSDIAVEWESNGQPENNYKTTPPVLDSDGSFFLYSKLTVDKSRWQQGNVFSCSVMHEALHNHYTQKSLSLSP
light: DIQMTQSPSSLSASVGDSVTITCQASTDISSHLNWYQQKPGKAPELLIYYGSHLLSGVPSRFSGSGSGTDFTFTISSLEAEDAATYYCGQGNRLPYTFGQGTKVEIERTVAAPSVFIFPPSDEQLKSGTASVVCLLNNFYPREAKVQWKVDNALQSGNSQESVTEQDSKDSTYSLSSTLTLSKADYEKHKVYACEVTHQGLSSPVTKSFNRGEC
modifications: N-linked sugar chain at Asn 297 (EU numbering), sialic acid not removed
notes: Same chains as GL1-IgG1-SA (-), not treated with sialidase; also called Fv4-IgG1
B2 showed a Kd [1] of 2.1 nM and a Kd [2] of 66 nM.

B3: GL4-M111-SA (-) (antibody, human IgG1, kappa, N297A)
heavy: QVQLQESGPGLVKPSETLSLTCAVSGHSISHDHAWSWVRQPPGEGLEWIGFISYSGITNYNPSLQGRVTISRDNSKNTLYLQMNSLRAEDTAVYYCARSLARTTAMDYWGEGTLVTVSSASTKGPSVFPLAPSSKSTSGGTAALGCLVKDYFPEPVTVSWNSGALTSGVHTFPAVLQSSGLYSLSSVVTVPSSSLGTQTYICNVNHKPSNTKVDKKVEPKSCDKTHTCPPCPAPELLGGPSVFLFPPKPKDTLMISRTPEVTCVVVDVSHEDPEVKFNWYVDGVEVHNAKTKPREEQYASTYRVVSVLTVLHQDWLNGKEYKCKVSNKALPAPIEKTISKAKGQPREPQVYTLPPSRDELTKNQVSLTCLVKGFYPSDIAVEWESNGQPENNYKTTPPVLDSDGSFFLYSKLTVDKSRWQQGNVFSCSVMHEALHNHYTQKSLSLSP
light: DIQMTQSPSSLSASVGDSVTITCNASTDISSHLNWYQQKPGKAPELLIYYGSHLLSGVPSRFSGSGSGTDFTFTISSLEAEDAATYYCGQGNRLPYTFGQGTKVEIERTVAAPSVFIFPPSDEQLKSGTASVVCLLNNFYPREAKVQWKVDNALQSGNSQESVTEQDSKDSTYSLSSTLTLSKADYEKHKVYACEVTHQGLSSPVTKSFNRGEC
modifications: N-linked complex sugar chain at the site introduced by Gln 24 to Asn (Kabat), sialic acid removed, terminal galactose exposed
notes: Treated with neuraminidase
Binder B3 has a Kd [3] of 1.7 nM and a Kd [4] of 140 nM.

B4: GL8-M111-SA (-) (antibody, human IgG1, kappa, N297A)
heavy: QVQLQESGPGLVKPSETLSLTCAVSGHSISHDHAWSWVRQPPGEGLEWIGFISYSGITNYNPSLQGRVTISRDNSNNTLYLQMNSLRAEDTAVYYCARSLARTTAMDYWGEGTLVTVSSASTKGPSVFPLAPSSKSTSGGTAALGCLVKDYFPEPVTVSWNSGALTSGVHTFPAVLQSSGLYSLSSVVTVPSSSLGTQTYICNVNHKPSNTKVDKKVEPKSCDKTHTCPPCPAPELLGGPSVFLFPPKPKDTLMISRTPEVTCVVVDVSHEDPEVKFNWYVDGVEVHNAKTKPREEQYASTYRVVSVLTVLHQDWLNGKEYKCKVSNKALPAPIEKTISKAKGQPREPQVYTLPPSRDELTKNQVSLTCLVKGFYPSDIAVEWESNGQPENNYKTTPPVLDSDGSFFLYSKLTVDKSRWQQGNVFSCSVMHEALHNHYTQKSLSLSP
light: DIQMTQSPSSLSASVGDSVNITCQASTDISSHLNWYQQKPGKAPELLIYYGSHLLSGVPSRFSGSGSGTDFTFTISSLEAEDAATYYCGQGNRLPYTFGQGTKVEIERTVAAPSVFIFPPSDEQLKSGTASVVCLLNNFYPREAKVQWKVDNALQSGNSQESVTEQDSKDSTYSLSSTLTLSKADYEKHKVYACEVTHQGLSSPVTKSFNRGEC
modifications: N-linked complex sugar chain at the site introduced by Thr 20 to Asn (Kabat), sialic acid removed; N-linked complex sugar chain at the site introduced by Lys 75 to Asn (Kabat), sialic acid removed
notes: Treated with neuraminidase
Binder B4 has a Kd [3] of 2 nM and a Kd [4] of 110 nM.

B5: GL1-IgG1-SA (-) (antibody)
heavy: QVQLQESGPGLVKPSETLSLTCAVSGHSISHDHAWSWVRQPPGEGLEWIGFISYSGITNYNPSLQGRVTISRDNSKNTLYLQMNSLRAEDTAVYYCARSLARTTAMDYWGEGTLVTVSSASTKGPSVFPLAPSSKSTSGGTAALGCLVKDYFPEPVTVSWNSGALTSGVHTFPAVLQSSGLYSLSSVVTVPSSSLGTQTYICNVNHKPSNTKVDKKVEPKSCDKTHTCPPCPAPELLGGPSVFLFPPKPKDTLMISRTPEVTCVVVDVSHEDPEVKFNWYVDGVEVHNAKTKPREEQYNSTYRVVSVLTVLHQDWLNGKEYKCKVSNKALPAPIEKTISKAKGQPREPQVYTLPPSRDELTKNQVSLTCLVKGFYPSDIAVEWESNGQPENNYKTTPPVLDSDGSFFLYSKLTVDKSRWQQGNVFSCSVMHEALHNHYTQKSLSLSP
light: DIQMTQSPSSLSASVGDSVTITCQASTDISSHLNWYQQKPGKAPELLIYYGSHLLSGVPSRFSGSGSGTDFTFTISSLEAEDAATYYCGQGNRLPYTFGQGTKVEIERTVAAPSVFIFPPSDEQLKSGTASVVCLLNNFYPREAKVQWKVDNALQSGNSQESVTEQDSKDSTYSLSSTLTLSKADYEKHKVYACEVTHQGLSSPVTKSFNRGEC
modifications: N-linked sugar chain at Asn 297 (EU numbering), terminal sialic acid removed
notes: also called GL1-IgG1 treated with neuraminidase/sialidase; Fv4-IgG1
With B5 the Kd [1] was 2.2 nM, the Kd [2] was 61 nM and the Kd [3] was 1.8 nM. For the same binder, the Kd [4] was 150 nM.

B6: GL3-M111-SA (-) (antibody, human IgG1, kappa, N297A)
heavy: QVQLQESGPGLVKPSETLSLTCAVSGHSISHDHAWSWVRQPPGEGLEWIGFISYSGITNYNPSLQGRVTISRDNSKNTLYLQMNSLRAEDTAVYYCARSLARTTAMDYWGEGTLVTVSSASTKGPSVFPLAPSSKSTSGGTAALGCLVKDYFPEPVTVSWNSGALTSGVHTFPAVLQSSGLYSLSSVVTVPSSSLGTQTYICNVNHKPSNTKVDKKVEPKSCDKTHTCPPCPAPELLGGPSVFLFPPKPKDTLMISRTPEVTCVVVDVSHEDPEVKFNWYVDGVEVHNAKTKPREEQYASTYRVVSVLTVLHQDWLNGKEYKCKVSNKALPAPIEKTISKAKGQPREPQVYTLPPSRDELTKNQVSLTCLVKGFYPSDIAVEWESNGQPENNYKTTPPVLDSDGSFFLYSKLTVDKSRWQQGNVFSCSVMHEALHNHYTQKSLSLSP
light: DIQMTQSPSSLSASVGDSVNITCQASTDISSHLNWYQQKPGKAPELLIYYGSHLLSGVPSRFSGSGSGTDFTFTISSLEAEDAATYYCGQGNRLPYTFGQGTKVEIERTVAAPSVFIFPPSDEQLKSGTASVVCLLNNFYPREAKVQWKVDNALQSGNSQESVTEQDSKDSTYSLSSTLTLSKADYEKHKVYACEVTHQGLSSPVTKSFNRGEC
modifications: N-linked complex sugar chain at the site introduced by Thr 20 to Asn (Kabat), sialic acid removed, terminal galactose exposed
notes: Treated with neuraminidase
Binder B6 has a Kd [3] of 1.3 nM and a Kd [4] of 80 nM.

B7: GL6-M111-SA (-) (antibody, human IgG1, kappa, N297A)
heavy: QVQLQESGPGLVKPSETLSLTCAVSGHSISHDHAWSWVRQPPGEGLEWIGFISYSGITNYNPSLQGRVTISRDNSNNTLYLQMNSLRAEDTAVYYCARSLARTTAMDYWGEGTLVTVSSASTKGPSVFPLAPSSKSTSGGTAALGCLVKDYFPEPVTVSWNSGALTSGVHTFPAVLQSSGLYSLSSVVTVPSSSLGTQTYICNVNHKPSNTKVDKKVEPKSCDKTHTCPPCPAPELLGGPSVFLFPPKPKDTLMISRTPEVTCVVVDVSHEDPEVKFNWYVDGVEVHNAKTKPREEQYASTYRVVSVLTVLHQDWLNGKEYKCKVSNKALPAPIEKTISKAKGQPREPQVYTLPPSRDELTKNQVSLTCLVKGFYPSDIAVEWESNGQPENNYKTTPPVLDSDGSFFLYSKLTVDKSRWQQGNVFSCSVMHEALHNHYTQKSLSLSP
light: DIQMTQSPSSLSASVGDSVTITCQASTDISSHLNWYQQKPGKAPELLIYYGSHLLSGVPSRFSGSGSGTDFTFTISSLEAEDAATYYCGQGNRLPYTFGQGTKVEIERTVAAPSVFIFPPSDEQLKSGTASVVCLLNNFYPREAKVQWKVDNALQSGNSQESVTEQDSKDSTYSLSSTLTLSKADYEKHKVYACEVTHQGLSSPVTKSFNRGEC
modifications: N-linked complex sugar chain at the site introduced by Lys 75 to Asn (Kabat), sialic acid removed, terminal galactose exposed
notes: Treated with neuraminidase
With B7 the Kd [3] was 2.6 nM and the Kd [4] was 110 nM.

B8: GL7-M111-SA (-) (antibody, human IgG1, kappa, N297A)
heavy: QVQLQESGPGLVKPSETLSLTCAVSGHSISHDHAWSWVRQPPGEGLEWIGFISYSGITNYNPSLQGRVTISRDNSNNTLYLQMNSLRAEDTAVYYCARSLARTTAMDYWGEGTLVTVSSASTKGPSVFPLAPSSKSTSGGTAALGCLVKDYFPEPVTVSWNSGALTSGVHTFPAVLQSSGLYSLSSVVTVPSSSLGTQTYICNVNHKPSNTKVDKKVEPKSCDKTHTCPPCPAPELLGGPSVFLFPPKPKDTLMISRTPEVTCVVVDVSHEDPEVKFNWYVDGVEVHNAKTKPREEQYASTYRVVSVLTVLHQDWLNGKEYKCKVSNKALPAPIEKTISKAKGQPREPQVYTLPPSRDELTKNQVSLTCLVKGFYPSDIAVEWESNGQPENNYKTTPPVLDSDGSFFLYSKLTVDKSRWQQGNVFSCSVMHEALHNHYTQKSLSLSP
light: DIQMTQSPSSLSASVGDNVTITCQASTDISSHLNWYQQKPGKAPELLIYYGSHLLSGVPSRFSGSGSGTDFTFTISSLEAEDAATYYCGQGNRLPYTFGQGTKVEIERTVAAPSVFIFPPSDEQLKSGTASVVCLLNNFYPREAKVQWKVDNALQSGNSQESVTEQDSKDSTYSLSSTLTLSKADYEKHKVYACEVTHQGLSSPVTKSFNRGEC
modifications: N-linked complex sugar chain at the site introduced by Ser 18 to Asn (Kabat), sialic acid removed; N-linked complex sugar chain at the site introduced by Lys 75 to Asn (Kabat), sialic acid removed
notes: Treated with neuraminidase
With B8 the Kd [3] was 2.4 nM and the Kd [4] was 150 nM.

B9: GL10-M111-SA (-) (antibody, human IgG1, kappa, N297A)
heavy: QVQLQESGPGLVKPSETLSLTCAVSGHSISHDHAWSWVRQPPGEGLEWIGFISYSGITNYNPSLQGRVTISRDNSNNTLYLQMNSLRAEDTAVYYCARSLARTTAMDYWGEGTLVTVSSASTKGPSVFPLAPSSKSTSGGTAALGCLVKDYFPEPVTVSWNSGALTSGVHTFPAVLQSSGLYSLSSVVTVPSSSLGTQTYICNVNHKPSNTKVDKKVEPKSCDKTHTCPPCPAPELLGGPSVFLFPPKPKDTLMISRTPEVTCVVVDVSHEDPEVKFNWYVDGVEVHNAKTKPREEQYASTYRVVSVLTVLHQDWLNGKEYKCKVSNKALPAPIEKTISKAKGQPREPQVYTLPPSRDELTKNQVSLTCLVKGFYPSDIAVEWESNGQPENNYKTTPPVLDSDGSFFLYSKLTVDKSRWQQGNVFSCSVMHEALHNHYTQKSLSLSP
light: DIQMTQSPSSLSASVGDNVTITCNASTDISSHLNWYQQKPGKAPELLIYYGSHLLSGVPSRFSGSGSGTDFTFTISSLEAEDAATYYCGQGNRLPYTFGQGTKVEIERTVAAPSVFIFPPSDEQLKSGTASVVCLLNNFYPREAKVQWKVDNALQSGNSQESVTEQDSKDSTYSLSSTLTLSKADYEKHKVYACEVTHQGLSSPVTKSFNRGEC
modifications: two N-linked complex sugar chains at the sites introduced by Thr 20 to Asn and Gln 24 to Asn (Kabat), sialic acid removed; N-linked complex sugar chain at the site introduced by Lys 75 to Asn (Kabat), sialic acid removed
notes: Treated with neuraminidase
B9 was tested, and the Kd [3] was 2.4 nM and the Kd [4] was 130 nM.

B10: GL2-M111-SA (-) (antibody, human IgG1, kappa, N297A)
heavy: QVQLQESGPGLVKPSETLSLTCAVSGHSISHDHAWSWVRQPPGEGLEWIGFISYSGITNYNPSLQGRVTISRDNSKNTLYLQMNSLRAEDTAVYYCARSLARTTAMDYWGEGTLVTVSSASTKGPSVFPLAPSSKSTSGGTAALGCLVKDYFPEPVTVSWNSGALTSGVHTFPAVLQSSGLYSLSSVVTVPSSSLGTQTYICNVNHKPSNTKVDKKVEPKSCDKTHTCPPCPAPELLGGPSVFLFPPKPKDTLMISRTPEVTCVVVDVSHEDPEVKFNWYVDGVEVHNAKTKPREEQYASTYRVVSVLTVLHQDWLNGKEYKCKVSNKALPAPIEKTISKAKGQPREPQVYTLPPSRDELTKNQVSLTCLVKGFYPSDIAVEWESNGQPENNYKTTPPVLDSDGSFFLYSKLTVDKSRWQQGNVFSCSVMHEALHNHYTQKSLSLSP
light: DIQMTQSPSSLSASVGDNVTITCQASTDISSHLNWYQQKPGKAPELLIYYGSHLLSGVPSRFSGSGSGTDFTFTISSLEAEDAATYYCGQGNRLPYTFGQGTKVEIERTVAAPSVFIFPPSDEQLKSGTASVVCLLNNFYPREAKVQWKVDNALQSGNSQESVTEQDSKDSTYSLSSTLTLSKADYEKHKVYACEVTHQGLSSPVTKSFNRGEC
modifications: N-linked complex sugar chain at the site introduced by Ser 18 to Asn (Kabat), sialic acid removed, terminal galactose exposed
notes: Treated with neuraminidase
In the case of B10, the Kd [3] is reported as 1.6 nM and the Kd [4] is reported as 110 nM.

B11: GL9-M111-SA (-) (antibody, human IgG1, kappa, N297A)
heavy: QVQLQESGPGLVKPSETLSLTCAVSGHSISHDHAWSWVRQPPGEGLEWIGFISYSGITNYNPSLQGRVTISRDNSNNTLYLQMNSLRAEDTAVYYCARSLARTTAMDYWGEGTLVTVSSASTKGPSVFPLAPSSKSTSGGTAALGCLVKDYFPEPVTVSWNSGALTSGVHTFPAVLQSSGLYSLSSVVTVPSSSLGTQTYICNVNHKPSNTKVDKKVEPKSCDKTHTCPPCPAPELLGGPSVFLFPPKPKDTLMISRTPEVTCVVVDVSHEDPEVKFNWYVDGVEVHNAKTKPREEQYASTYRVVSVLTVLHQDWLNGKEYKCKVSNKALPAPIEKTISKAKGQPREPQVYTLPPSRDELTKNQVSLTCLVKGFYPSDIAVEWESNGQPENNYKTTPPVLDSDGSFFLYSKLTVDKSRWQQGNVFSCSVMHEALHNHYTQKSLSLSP
light: DIQMTQSPSSLSASVGDSVTITCNASTDISSHLNWYQQKPGKAPELLIYYGSHLLSGVPSRFSGSGSGTDFTFTISSLEAEDAATYYCGQGNRLPYTFGQGTKVEIERTVAAPSVFIFPPSDEQLKSGTASVVCLLNNFYPREAKVQWKVDNALQSGNSQESVTEQDSKDSTYSLSSTLTLSKADYEKHKVYACEVTHQGLSSPVTKSFNRGEC
modifications: N-linked complex sugar chain at the site introduced by Gln 24 to Asn (Kabat), sialic acid removed; N-linked complex sugar chain at the site introduced by Lys 75 to Asn (Kabat), sialic acid removed
notes: Treated with neuraminidase
In the case of B11, the Kd [3] is reported as 2.3 nM and the Kd [4] is reported as 110 nM.

B12: GL5-IgG1-SA (-) (antibody)
heavy: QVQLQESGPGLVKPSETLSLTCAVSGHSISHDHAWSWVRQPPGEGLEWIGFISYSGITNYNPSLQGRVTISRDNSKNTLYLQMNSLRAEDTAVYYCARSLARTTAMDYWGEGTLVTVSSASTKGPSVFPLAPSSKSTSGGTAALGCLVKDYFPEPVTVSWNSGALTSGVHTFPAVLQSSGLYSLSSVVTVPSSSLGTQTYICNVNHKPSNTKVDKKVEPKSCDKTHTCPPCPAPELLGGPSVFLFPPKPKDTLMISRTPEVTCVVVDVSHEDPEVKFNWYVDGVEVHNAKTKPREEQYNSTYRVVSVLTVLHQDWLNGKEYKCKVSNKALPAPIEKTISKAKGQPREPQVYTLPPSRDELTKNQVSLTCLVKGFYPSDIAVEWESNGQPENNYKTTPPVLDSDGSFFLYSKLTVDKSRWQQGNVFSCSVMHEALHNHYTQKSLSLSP
light: DIQMTQSPSSLSASVGDNVTITCNASTDISSHLNWYQQKPGKAPELLIYYGSHLLSGVPSRFSGSGSGTDFTFTISSLEAEDAATYYCGQGNRLPYTFGQGTKVEIERTVAAPSVFIFPPSDEQLKSGTASVVCLLNNFYPREAKVQWKVDNALQSGNSQESVTEQDSKDSTYSLSSTLTLSKADYEKHKVYACEVTHQGLSSPVTKSFNRGEC
modifications: N-linked sugar chains at two sites of the light chain (Asn 20 and Asn 24, Kabat), sialic acid removed; N-linked sugar chain at Asn 297 (EU numbering), terminal sialic acid removed
notes: Treated with sialidase
B12 gave a Kd [1] of 1.9 nM and a Kd [2] of 52 nM.
